The values below come from article PMC4289141 (Journal of the American Chemical Society, 2013).

This series concerns the molecule itself. The series is described as follows: cross-linking.

B1: ^A74/C81/C96RIDC1 (natural protein)
chain: not shown
modifications: heme covalently (c-type) linked to the protein backbone; in the tetramer disulfide bonds between monomers
The term stoichiometry N denotes a count of units in the complex or per binding partner. As to B1, the “stoichiometry N” value is 4.
